# Test results as given in US20090208496A1 (BIOTEST, published 2009).
# Biological target: T1, soluble CD4 (human, UniProt P01730 26-396)
# T1 construct: extracellular domain
# Assay: competitive ELISA against biotinylated mB-F5 on coated soluble CD4, 37 C 2 hours
# Protocol: Culture supernatants of transfectomas producing the four versions of hB-F5 were collected, and concentrated. The different antibodies were purified from culture supernatants by affinity chromatography using protein A Sepharose and assessed for their CD4 binding activity by measuring, by means of competitive ELISA, their inhibitory activities against the binding of biotinylated mB-F5 to soluble CD4 coated on microtiter plates. Incubation time is 2 hours for 37 C and overnight for 4 C.
row,Relative binding activity (% of mB-F5),Binder
1,30 % of mB-F5,"humanized B-F5 version H37L/L4L (antibody, V domains shown, also called hB-F5; H37L/L4L IgG1) VH: EEQLVESGGGLVKPGGSLRLSCAASGFSFSDCRMYWLRQAPGKGLEWIGVISVKSENYGANYAESVRGRFTISRDDSKNTVYLQMNSLKTEDTAVYYCSASYYRYDVGAWFAYWGQGTLVTVSS VL: DIVLTQSPDSLAVSLGERATINCRASKSVSTSGYSYIYWYQQKPGQPPKLLIYLASILESGVPDRFSGSGSGTDFTLTISSLQAEDVAVYYCQHSRELPWTFGQGTKVEIK"
2,30 % of mB-F5,"humanized B-F5 version H37L/L4M (antibody, IgG1, V domains shown, also called hB-F5; H37L/L4M IgG1) VH: EEQLVESGGGLVKPGGSLRLSCAASGFSFSDCRMYWLRQAPGKGLEWIGVISVKSENYGANYAESVRGRFTISRDDSKNTVYLQMNSLKTEDTAVYYCSASYYRYDVGAWFAYWGQGTLVTVSS VL: DIVMTQSPDSLAVSLGERATINCRASKSVSTSGYSYIYWYQQKPGQPPKLLIYLASILESGVPDRFSGSGSGTDFTLTISSLQAEDVAVYYCQHSRELPWTFGQGTKVEIK"
3,10 % of mB-F5,"humanized B-F5 version H37V/L4M (antibody, V domains shown, also called hB-F5) VH: EEQLVESGGGLVKPGGSLRLSCAASGFSFSDCRMYWVRQAPGKGLEWIGVISVKSENYGANYAESVRGRFTISRDDSKNTVYLQMNSLKTEDTAVYYCSASYYRYDVGAWFAYWGQGTLVTVSS VL: DIVMTQSPDSLAVSLGERATINCRASKSVSTSGYSYIYWYQQKPGQPPKLLIYLASILESGVPDRFSGSGSGTDFTLTISSLQAEDVAVYYCQHSRELPWTFGQGTKVEIK"
4,10 % of mB-F5,"humanized B-F5 version H37V/L4L (antibody, V domains shown, also called hB-F5) VH: EEQLVESGGGLVKPGGSLRLSCAASGFSFSDCRMYWVRQAPGKGLEWIGVISVKSENYGANYAESVRGRFTISRDDSKNTVYLQMNSLKTEDTAVYYCSASYYRYDVGAWFAYWGQGTLVTVSS VL: DIVLTQSPDSLAVSLGERATINCRASKSVSTSGYSYIYWYQQKPGQPPKLLIYLASILESGVPDRFSGSGSGTDFTLTISSLQAEDVAVYYCQHSRELPWTFGQGTKVEIK"
